Results taken from the supplement of paper PMC9112550, “Optimization of the antimicrobial peptide Bac7 by deep mutational scanning” (BMC Biology, 2022).

System: Escherichia coli TOP10
Assay: shrunken log2 fold change of peptide-encoding DNA abundance (4.5 h post-induction vs induction); higher = less antimicrobial activity (less host growth inhibition)
Settings: time post-induction: 4.5 h; library: site-saturation at positions 5, 18, 19, 20
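Note: peptides expressed intracellularly from a pBAD plasmid library in pooled LB shake-flask culture, induced with 0.3% L-arabinose, DNA abundance read by NGS, three biological replicates, DESeq2 with apeglm shrinkage.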

Sequence: RRIRKRPPRLPRPRPRPPYLPRP
- shrunken log2 fold change: 0.0134

Sequence: RRIRIRPPRLPRPRPRPQTFPRP
- shrunken log2 fold change: -0.156

Sequence: RRIRTRPPRLPRPRPRPKIKPRP
- shrunken log2 fold change: -0.561

Sequence: RRIRYRPPRLPRPRPRPVCSPRP
- shrunken log2 fold change: -0.484

Sequence: RRIRVRPPRLPRPRPRPTFLPRP
- shrunken log2 fold change: -0.0973

Sequence: RRIRPRPPRLPRPRPRPIQCPRP
- shrunken log2 fold change: 0.0062

Sequence: RRIRWRPPRLPRPRPRPWSVPRP
- shrunken log2 fold change: -0.174

Sequence: RRIRGRPPRLPRPRPRPGKRPRP
- shrunken log2 fold change: 0.249

Sequence: RRIRHRPPRLPRPRPRPKLIPRP
- shrunken log2 fold change: -0.0143

Sequence: RRIRARPPRLPRPRPRPNMDPRP
- shrunken log2 fold change: -0.00909

Sequence: RRIRGRPPRLPRPRPRPMVRPRP
- shrunken log2 fold change: 0.03

Sequence: RRIRVRPPRLPRPRPRPGEYPRP
- shrunken log2 fold change: 0.00369

Sequence: RRIRNRPPRLPRPRPRPHLSPRP
- shrunken log2 fold change: -0.259

Sequence: RRIRVRPPRLPRPRPRPFSCPRP
- shrunken log2 fold change: -0.323

Sequence: RRIRFRPPRLPRPRPRPSRTPRP
- shrunken log2 fold change: 0.0872

Sequence: RRIRRRPPRLPRPRPRPWHFPRP
- shrunken log2 fold change: 0.121

Sequence: RRIRWRPPRLPRPRPRPSPIPRP
- shrunken log2 fold change: -0.0871

Sequence: RRIRDRPPRLPRPRPRPRKLPRP
- shrunken log2 fold change: 0.0892

Sequence: RRIRVRPPRLPRPRPRPIPMPRP
- shrunken log2 fold change: -0.094

Sequence: RRIRCRPPRLPRPRPRPLREPRP
- shrunken log2 fold change: 0.562

Sequence: RRIRVRPPRLPRPRPRPQSPPRP
- shrunken log2 fold change: -0.221

Sequence: RRIRQRPPRLPRPRPRPLFIPRP
- shrunken log2 fold change: -0.673

Sequence: RRIRLRPPRLPRPRPRPPARPRP
- shrunken log2 fold change: 0.789

Sequence: RRIRHRPPRLPRPRPRPHAGPRP
- shrunken log2 fold change: -0.245

Sequence: RRIRTRPPRLPRPRPRPRGNPRP
- shrunken log2 fold change: 0.0399

Sequence: RRIRRRPPRLPRPRPRPGMKPRP
- shrunken log2 fold change: -0.133

Sequence: RRIRGRPPRLPRPRPRPQLRPRP
- shrunken log2 fold change: 0.139

Sequence: RRIRGRPPRLPRPRPRPWRAPRP
- shrunken log2 fold change: 0.311

Sequence: RRIRNRPPRLPRPRPRPICMPRP
- shrunken log2 fold change: -0.195

Sequence: RRIRLRPPRLPRPRPRPLGRPRP
- shrunken log2 fold change: 0.0726

Sequence: RRIRFRPPRLPRPRPRPGFQPRP
- shrunken log2 fold change: 0.0959

Sequence: RRIRVRPPRLPRPRPRPNMYPRP
- shrunken log2 fold change: 0.0145

Sequence: RRIRKRPPRLPRPRPRPKTLPRP
- shrunken log2 fold change: 0.239

Sequence: RRIRERPPRLPRPRPRPRVLPRP
- shrunken log2 fold change: 0.161

Sequence: RRIRGRPPRLPRPRPRPPQAPRP
- shrunken log2 fold change: 1.58

Sequence: RRIRTRPPRLPRPRPRPMNFPRP
- shrunken log2 fold change: -0.638

Sequence: RRIRSRPPRLPRPRPRPFMRPRP
- shrunken log2 fold change: 0.0496

Sequence: RRIRVRPPRLPRPRPRPASEPRP
- shrunken log2 fold change: 0.0395

Sequence: RRIRHRPPRLPRPRPRPAVWPRP
- shrunken log2 fold change: 0.261

Sequence: RRIRQRPPRLPRPRPRPRWSPRP
- shrunken log2 fold change: 0.231

Sequence: RRIRKRPPRLPRPRPRPHCDPRP
- shrunken log2 fold change: 0.266

Sequence: RRIRERPPRLPRPRPRPNTVPRP
- shrunken log2 fold change: -0.595

Sequence: RRIRKRPPRLPRPRPRPEHYPRP
- shrunken log2 fold change: 0.0532

Sequence: RRIRPRPPRLPRPRPRPLHWPRP
- shrunken log2 fold change: 0.481

Sequence: RRIRIRPPRLPRPRPRPLLWPRP
- shrunken log2 fold change: 0.0456

Sequence: RRIRVRPPRLPRPRPRPVWFPRP
- shrunken log2 fold change: -0.0288

Sequence: RRIRSRPPRLPRPRPRPHEWPRP
- shrunken log2 fold change: 0.147

Sequence: RRIRRRPPRLPRPRPRPKPYPRP
- shrunken log2 fold change: -0.033

Sequence: RRIRVRPPRLPRPRPRPENDPRP
- shrunken log2 fold change: -0.0879

Sequence: RRIRRRPPRLPRPRPRPEMMPRP
- shrunken log2 fold change: 0.345

Sequence: RRIRQRPPRLPRPRPRPKTYPRP
- shrunken log2 fold change: -0.241

Sequence: RRIRYRPPRLPRPRPRPVALPRP
- shrunken log2 fold change: -0.404

Sequence: RRIRIRPPRLPRPRPRPDKHPRP
- shrunken log2 fold change: -0.979

Sequence: RRIRIRPPRLPRPRPRPPGRPRP
- shrunken log2 fold change: 0.336

Sequence: RRIRPRPPRLPRPRPRPNKDPRP
- shrunken log2 fold change: -0.534

Sequence: RRIRARPPRLPRPRPRPAEYPRP
- shrunken log2 fold change: -0.0257

Sequence: RRIRQRPPRLPRPRPRPSEVPRP
- shrunken log2 fold change: -0.022

Sequence: RRIRHRPPRLPRPRPRPSKEPRP
- shrunken log2 fold change: -0.0697

Sequence: RRIRERPPRLPRPRPRPSRKPRP
- shrunken log2 fold change: 0.113

Sequence: RRIRHRPPRLPRPRPRPRNWPRP
- shrunken log2 fold change: 0.0465
